Measured values: PMC10450190, “RIG-I recognizes metabolite-capped RNAs as signaling ligands”

Molecular target: T1, RIG-I (UniProt O95786 1-925)
T1 sequence: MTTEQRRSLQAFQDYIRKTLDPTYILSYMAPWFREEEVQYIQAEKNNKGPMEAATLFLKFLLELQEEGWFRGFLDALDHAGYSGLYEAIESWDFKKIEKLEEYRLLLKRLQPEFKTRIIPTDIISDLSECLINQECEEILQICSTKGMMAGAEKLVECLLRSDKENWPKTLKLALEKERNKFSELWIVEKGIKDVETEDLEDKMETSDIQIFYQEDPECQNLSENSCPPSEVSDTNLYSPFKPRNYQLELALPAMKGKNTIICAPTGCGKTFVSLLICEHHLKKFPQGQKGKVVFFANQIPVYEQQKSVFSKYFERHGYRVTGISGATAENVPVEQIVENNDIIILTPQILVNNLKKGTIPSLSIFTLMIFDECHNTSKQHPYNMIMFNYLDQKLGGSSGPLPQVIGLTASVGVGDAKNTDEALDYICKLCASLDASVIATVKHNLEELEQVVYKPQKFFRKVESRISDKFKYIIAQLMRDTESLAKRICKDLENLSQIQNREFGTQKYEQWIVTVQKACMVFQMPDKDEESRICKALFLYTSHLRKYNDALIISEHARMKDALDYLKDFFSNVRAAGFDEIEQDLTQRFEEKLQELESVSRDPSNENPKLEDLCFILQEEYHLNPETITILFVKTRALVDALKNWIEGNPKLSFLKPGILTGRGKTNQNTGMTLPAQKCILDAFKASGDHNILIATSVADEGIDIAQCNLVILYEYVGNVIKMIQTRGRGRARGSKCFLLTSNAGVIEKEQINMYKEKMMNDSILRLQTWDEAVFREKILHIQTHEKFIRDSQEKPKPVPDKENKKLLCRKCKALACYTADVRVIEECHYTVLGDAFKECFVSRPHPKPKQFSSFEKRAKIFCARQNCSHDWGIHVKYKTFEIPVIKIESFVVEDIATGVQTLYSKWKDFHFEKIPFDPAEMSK
Assay: competition (fluorescence polarization); 0.5 mM ATP; vs labeled 5' PPP ds39; 50 mM MOPS pH 7.4, 5 mM DTT, 5 mM MgCl2, 0.01% Tween20; 25 C (ATPase, 2 mM ATP; FP, 0.5 mM ATP); EMSA 4 C with 2 mM ATP, 75 nM RIG-I, 25 nM RNA
Conditions: protein: recombinant; tags: none (6xHis-SUMO removed by Ulp1); label: none; single-stranded

Q: Does AGUUGGUGGUUGUUGUGUGUUUGUGGUUGGUUUGUUUGG (ssRNA, 5' triphosphate) [5' PPP ss39] bind?
A: no binding

Q: Does AGUUGGUGGUUGUUGUGUGUUUGUGGUUGGUUUGUUUGG (ssRNA, 5' NAD+ cap) [5' NAD+ ss39] bind?
A: no binding
